Experimental data taken from patent US20240383984A1 (Genentech, published 2024).
One block for each binder: values may come before it.

What was measured:
[1] = biological target: T1, human FcRH5 protein fragment (soluble) (human, UniProt Q96RD9 16-851); assay: SPR, hIgG capture, screening
T1 construct: whole entry named; also called soluble human FcRH5; Human FcRH5 (BIACORE analyte)
T1 sequence: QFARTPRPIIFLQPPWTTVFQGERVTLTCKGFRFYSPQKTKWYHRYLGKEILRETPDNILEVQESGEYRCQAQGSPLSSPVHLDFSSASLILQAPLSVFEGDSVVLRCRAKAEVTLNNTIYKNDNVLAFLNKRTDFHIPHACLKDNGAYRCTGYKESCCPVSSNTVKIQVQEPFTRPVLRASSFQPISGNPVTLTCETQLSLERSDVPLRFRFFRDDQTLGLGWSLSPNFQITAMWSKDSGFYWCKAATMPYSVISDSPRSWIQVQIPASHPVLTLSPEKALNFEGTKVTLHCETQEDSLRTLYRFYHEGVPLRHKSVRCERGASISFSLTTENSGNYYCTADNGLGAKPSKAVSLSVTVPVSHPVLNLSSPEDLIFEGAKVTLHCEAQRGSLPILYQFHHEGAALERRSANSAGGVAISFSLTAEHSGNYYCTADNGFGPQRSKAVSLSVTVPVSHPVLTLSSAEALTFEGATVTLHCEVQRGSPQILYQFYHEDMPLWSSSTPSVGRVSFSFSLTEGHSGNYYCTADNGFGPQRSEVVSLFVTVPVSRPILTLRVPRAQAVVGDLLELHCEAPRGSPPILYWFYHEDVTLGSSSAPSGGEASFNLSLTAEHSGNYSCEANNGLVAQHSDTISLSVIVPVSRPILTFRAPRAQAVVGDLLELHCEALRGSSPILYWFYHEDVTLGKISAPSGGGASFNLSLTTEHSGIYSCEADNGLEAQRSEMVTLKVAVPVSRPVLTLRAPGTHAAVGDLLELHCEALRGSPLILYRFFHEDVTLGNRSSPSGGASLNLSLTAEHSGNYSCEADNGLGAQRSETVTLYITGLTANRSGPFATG
Protocol: (§1) Briefly, a human IgG capture surface was generated on a Series S CM5 chip using amine coupling and the human IgG capture kit (GE Life Sciences, Piscataway, NJ). Test antibodies were then captured on flow cells 2, 3, or 4, with flow cell 1 used as a reference. An FcRH5 protein fragment was used as the analyte, with a flow rate of […]. Between injections the capture surface was regenerated by a 30-second injection of 3M magnesium chloride or 10 mM glycine, pH 1.5. Interactions were assessed at 25° C. in 10 mM HEPES pH7.4, 150 mM NaCl, and 0.05% Tween 20 (HBSP). Reference data from the reference flow cell and from injection of buffer alone were subtracted prior to kinetic analysis. Kinetic information was calculated by fitting data to a 1:1 binding model. Reference subtraction and data fitting were performed using BIAevaluation software (GE Life Sciences, Piscataway, NJ).
(§2) For affinity screening of HVR-H2 Trp52 and Met64 variants (Table 7), antibodies were expressed by transient transfection of Expi293 cells and purified using tip columns that were custom packed with affinity resin MabSelect SuRe (Glygen Corp., Columbia, MD & GE Life Sciences, Piscataway, NJ). […] Binding of FcRH5 protein fragment to captured antibodies was monitored at 100 nM and 500 nM. Association and dissociation were monitored at a flow rate of 40 μl/min, for 180 s and 300 s, respectively.

[2] = biological target: T1, human FcRH5 protein fragment (soluble); assay: SPR (BIACORE), IgG captured via anti-human IgG, FcRH5 protein fragment as analyte (100 and 500 nM)
Protocol: as §1, §2

B1: hu1G7.v1 heavy chain M64F with light chain of hu1G7.v1 (antibody, V domains shown)
VH: EVQLVESGPGLVKPSETLSLTCTVSGFSLTRFGVHWVRQPPGKGLEWLGVIWRGGSTDYNAAFFSRLTISKDNSKNQVSLKLSSVTAADTAVYYCSNHYYGSSDYALDNWGQGTLVTVSS
VL: DIQMTQSPSSLSASVGDRVTITCKASQDVSNIVVWFQQKPGKSPKLLIYSASYRYTGVPSRFSGSGSGTDFTLTISSLQPEDFATYYCQQHYSSPYTFGQGTKVEIK
notes: human IgG
- Kd [1]: 26 nM
- Kd [2]: 25.9 nM

B2: hu1G7.v1 heavy chain M64F with light chain of hu1G7.v1.5 (antibody, V domains shown)
VH: EVQLVESGPGLVKPSETLSLTCTVSGFSLTRFGVHWVRQPPGKGLEWLGVIWRGGSTDYNAAFFSRLTISKDNSKNQVSLKLSSVTAADTAVYYCSNHYYGSSDYALDNWGQGTLVTVSS
VL: DIQMTQSPSSLSASVGDRVTITCKASQDVSNIVVWFQQKPGKSPKLLIYSGYYRYTGVPSRFSGSGSGTDFTLTISSLQPEDFATYYCQQQFQPPYTFGQGTKVEIK
notes: human IgG
- Kd [1]: 1.4 nM
- Kd [2]: 1.4 nM

B6: hu1G7.v1 heavy chain M64F with light chain of hu1G7.v1.7 (antibody, V domains shown)
VH: EVQLVESGPGLVKPSETLSLTCTVSGFSLTRFGVHWVRQPPGKGLEWLGVIWRGGSTDYNAAFFSRLTISKDNSKNQVSLKLSSVTAADTAVYYCSNHYYGSSDYALDNWGQGTLVTVSS
VL: DIQMTQSPSSLSASVGDRVTITCKASQDVRNLVVWFQQKPGKAPKLLIYSGYYRYTGVPSRFSGSGSGTDFTLTISSLQPEDFATYYCQQHYQPPYTFGQGTKVEIK
notes: human IgG
- Kd [1]: 2.4 nM
- Kd [2]: 2.4 nM

B7: hu1G7.v1 heavy chain M64I with light chain of hu1G7.v1.5 (antibody, V domains shown)
VH: EVQLVESGPGLVKPSETLSLTCTVSGFSLTRFGVHWVRQPPGKGLEWLGVIWRGGSTDYNAAFISRLTISKDNSKNQVSLKLSSVTAADTAVYYCSNHYYGSSDYALDNWGQGTLVTVSS
VL: DIQMTQSPSSLSASVGDRVTITCKASQDVSNIVVWFQQKPGKSPKLLIYSGYYRYTGVPSRFSGSGSGTDFTLTISSLQPEDFATYYCQQQFQPPYTFGQGTKVEIK
notes: human IgG
- Kd [1]: 2.7 nM
- Kd [2]: 2.7 nM

B8: hu1G7.v1 heavy chain M64I with light chain of hu1G7.v1 (antibody, V domains shown)
VH: EVQLVESGPGLVKPSETLSLTCTVSGFSLTRFGVHWVRQPPGKGLEWLGVIWRGGSTDYNAAFISRLTISKDNSKNQVSLKLSSVTAADTAVYYCSNHYYGSSDYALDNWGQGTLVTVSS
VL: DIQMTQSPSSLSASVGDRVTITCKASQDVSNIVVWFQQKPGKSPKLLIYSASYRYTGVPSRFSGSGSGTDFTLTISSLQPEDFATYYCQQHYSSPYTFGQGTKVEIK
notes: human IgG
- Kd [1]: 30 nM
- Kd [2]: 29.8 nM

B11: hu1G7.v1 heavy chain M64F with light chain of hu1G7.v1.4 (antibody, V domains shown)
VH: EVQLVESGPGLVKPSETLSLTCTVSGFSLTRFGVHWVRQPPGKGLEWLGVIWRGGSTDYNAAFFSRLTISKDNSKNQVSLKLSSVTAADTAVYYCSNHYYGSSDYALDNWGQGTLVTVSS
VL: DIQMTQSPSSLSASVGDRVTITCKASQDVRNLVVWFQQKPGKAPKLLIYSGSYRYSGVPSRFSGSGSGTDFTLTISSLQPEDFATYYCQQHYSPPYTFGQGTKVEIK
notes: human IgG
- Kd [1]: 2.5 nM
- Kd [2]: 2.5 nM

B13: hu1G7.v1 heavy chain M64I with light chain of hu1G7.v1.3 (antibody, V domains shown)
VH: EVQLVESGPGLVKPSETLSLTCTVSGFSLTRFGVHWVRQPPGKGLEWLGVIWRGGSTDYNAAFISRLTISKDNSKNQVSLKLSSVTAADTAVYYCSNHYYGSSDYALDNWGQGTLVTVSS
VL: DIQMTQSPSSLSASVGDRVTITCKASQDVRNIVVWFQQKPGKAPKLLIYSGSYRYSGVPSRFSGSGSGTDFTLTISSLQPEDFATYYCQQQYSPPYTFGQGTKVEIK
notes: human IgG
- Kd [1]: 2.1 nM
- Kd [2]: 2.1 nM

B14: hu1G7.v1 heavy chain M64I with light chain of hu1G7.v1.4 (antibody, V domains shown)
VH: EVQLVESGPGLVKPSETLSLTCTVSGFSLTRFGVHWVRQPPGKGLEWLGVIWRGGSTDYNAAFISRLTISKDNSKNQVSLKLSSVTAADTAVYYCSNHYYGSSDYALDNWGQGTLVTVSS
VL: DIQMTQSPSSLSASVGDRVTITCKASQDVRNLVVWFQQKPGKAPKLLIYSGSYRYSGVPSRFSGSGSGTDFTLTISSLQPEDFATYYCQQHYSPPYTFGQGTKVEIK
notes: human IgG
- Kd [1]: 2.5 nM
- Kd [2]: 2.5 nM

B15: hu1G7.v1 heavy chain M64F with light chain of hu1G7.v1.6 (antibody, V domains shown)
VH: EVQLVESGPGLVKPSETLSLTCTVSGFSLTRFGVHWVRQPPGKGLEWLGVIWRGGSTDYNAAFFSRLTISKDNSKNQVSLKLSSVTAADTAVYYCSNHYYGSSDYALDNWGQGTLVTVSS
VL: DIQMTQSPSSLSASVGDRVTITCKASQDVSNIVVWFQQKPGKAPKLLIYSGYYRYSGVPSRFSGSGSGTDFTLTISSLQPEDFATYYCQQQYQPPYTFGQGTKVEIK
notes: human IgG
- Kd [1]: 2.6 nM
- Kd [2]: 2.6 nM

B16: hu1G7.v1 heavy chain M64F with light chain of hu1G7.v1.3 (antibody, V domains shown)
VH: EVQLVESGPGLVKPSETLSLTCTVSGFSLTRFGVHWVRQPPGKGLEWLGVIWRGGSTDYNAAFFSRLTISKDNSKNQVSLKLSSVTAADTAVYYCSNHYYGSSDYALDNWGQGTLVTVSS
VL: DIQMTQSPSSLSASVGDRVTITCKASQDVRNIVVWFQQKPGKAPKLLIYSGSYRYSGVPSRFSGSGSGTDFTLTISSLQPEDFATYYCQQQYSPPYTFGQGTKVEIK
notes: human IgG
- Kd [1]: 2.2 nM
- Kd [2]: 2.2 nM

More lines, now with the values ahead:

- Kd [1]: 2.3 nM
- Kd [2]: 2.3 nM
B3: hu1G7.v1 heavy chain M64L with light chain of hu1G7.v1.5 (antibody, V domains shown)
VH: EVQLVESGPGLVKPSETLSLTCTVSGFSLTRFGVHWVRQPPGKGLEWLGVIWRGGSTDYNAAFLSRLTISKDNSKNQVSLKLSSVTAADTAVYYCSNHYYGSSDYALDNWGQGTLVTVSS
VL: DIQMTQSPSSLSASVGDRVTITCKASQDVSNIVVWFQQKPGKSPKLLIYSGYYRYTGVPSRFSGSGSGTDFTLTISSLQPEDFATYYCQQQFQPPYTFGQGTKVEIK
notes: human IgG

- Kd [1]: 2.7 nM
- Kd [2]: 2.7 nM
B4: hu1G7.v1 heavy chain M64I with light chain of hu1G7.v1.6 (antibody, V domains shown)
VH: EVQLVESGPGLVKPSETLSLTCTVSGFSLTRFGVHWVRQPPGKGLEWLGVIWRGGSTDYNAAFISRLTISKDNSKNQVSLKLSSVTAADTAVYYCSNHYYGSSDYALDNWGQGTLVTVSS
VL: DIQMTQSPSSLSASVGDRVTITCKASQDVSNIVVWFQQKPGKAPKLLIYSGYYRYSGVPSRFSGSGSGTDFTLTISSLQPEDFATYYCQQQYQPPYTFGQGTKVEIK
notes: human IgG

- Kd [1]: 2.5 nM
- Kd [2]: 2.5 nM
B5: hu1G7.v1 heavy chain M64L with light chain of hu1G7.v1.4 (antibody, V domains shown)
VH: EVQLVESGPGLVKPSETLSLTCTVSGFSLTRFGVHWVRQPPGKGLEWLGVIWRGGSTDYNAAFLSRLTISKDNSKNQVSLKLSSVTAADTAVYYCSNHYYGSSDYALDNWGQGTLVTVSS
VL: DIQMTQSPSSLSASVGDRVTITCKASQDVRNLVVWFQQKPGKAPKLLIYSGSYRYSGVPSRFSGSGSGTDFTLTISSLQPEDFATYYCQQHYSPPYTFGQGTKVEIK
notes: human IgG

- Kd [1]: 2.4 nM
- Kd [2]: 2.4 nM
B9: hu1G7.v1 heavy chain M64L with light chain of hu1G7.v1.3 (antibody, V domains shown)
VH: EVQLVESGPGLVKPSETLSLTCTVSGFSLTRFGVHWVRQPPGKGLEWLGVIWRGGSTDYNAAFLSRLTISKDNSKNQVSLKLSSVTAADTAVYYCSNHYYGSSDYALDNWGQGTLVTVSS
VL: DIQMTQSPSSLSASVGDRVTITCKASQDVRNIVVWFQQKPGKAPKLLIYSGSYRYSGVPSRFSGSGSGTDFTLTISSLQPEDFATYYCQQQYSPPYTFGQGTKVEIK
notes: human IgG

- Kd [1]: 2.6 nM
- Kd [2]: 2.6 nM
B10: hu1G7.v1 heavy chain M64I with light chain of hu1G7.v1.7 (antibody, V domains shown)
VH: EVQLVESGPGLVKPSETLSLTCTVSGFSLTRFGVHWVRQPPGKGLEWLGVIWRGGSTDYNAAFISRLTISKDNSKNQVSLKLSSVTAADTAVYYCSNHYYGSSDYALDNWGQGTLVTVSS
VL: DIQMTQSPSSLSASVGDRVTITCKASQDVRNLVVWFQQKPGKAPKLLIYSGYYRYTGVPSRFSGSGSGTDFTLTISSLQPEDFATYYCQQHYQPPYTFGQGTKVEIK
notes: human IgG

- Kd [1]: 27 nM
- Kd [2]: 26.5 nM
B12: hu1G7.v1 heavy chain M64L with light chain of hu1G7.v1 (antibody, V domains shown)
VH: EVQLVESGPGLVKPSETLSLTCTVSGFSLTRFGVHWVRQPPGKGLEWLGVIWRGGSTDYNAAFLSRLTISKDNSKNQVSLKLSSVTAADTAVYYCSNHYYGSSDYALDNWGQGTLVTVSS
VL: DIQMTQSPSSLSASVGDRVTITCKASQDVSNIVVWFQQKPGKSPKLLIYSASYRYTGVPSRFSGSGSGTDFTLTISSLQPEDFATYYCQQHYSSPYTFGQGTKVEIK
notes: human IgG
